What was measured:
CSL BTD (Homo sapiens) = CSL BTD (Homo sapiens) (UniProt Q06330); conditions: cited from earlier work
[1] = target: CSL (residues 10-436 of human isoform 1, myc/his) (human) (UniProt Q06330)
[2] = target: CSL^F235L (residues 10-436 of human isoform 1, myc/his) (human) (UniProt Q06330)
[3] = target: CSL (residues 10-436 of human isoform 1, myc/his) (human) (UniProt Q06330); remark: listed apart in the source
[4] = target: CAN (CSL-ANKNLS) fusion protein (human) (UniProt Q06330)
[5] = target: CSL (residues 10-436 of human isoform 1, myc/his) (human) (UniProt Q06330); remark: listed apart in the source
[6] = target: CAN (CSL-ANKNLS) fusion protein (human) (UniProt Q06330); remark: listed apart in the source

**Q.** Which Kd (CSL BTD (Homo sapiens)) does the source give for “Notch intracellular domain RAM region RAM (from UniProt P46531)” here?
**A.** 100 nM

**Q.** Which results are given for “NICD* (full-length NICD with xWxP to A4) (domain or fragment)”?
**A.** TP1-luc luciferase reporter in OT11 cells; NICD* co-transfected with CSL; fold activation [1]: 4 fold; TP1-luc luciferase reporter in OT11 cells; NICD* co-transfected with CSL^F235L; fold activation [2]: 38 fold

**Q.** Which results are given for “full-length NICD (human Notch1 intracellular domain) (domain or fragment)”?
**A.** TP1-luc luciferase reporter in OT11 cells; NICD co-transfected with CSL; fold activation [1]: 100 fold; TP1-luc luciferase reporter in OT11 cells; NICD co-transfected with CSL^F235L; fold activation [2]: 94 fold

**Q.** Which results are given for “dominant-negative form of MAML (dnMAML) (domain or fragment)”?
**A.** TP1-luc luciferase reporter in OT11 cells; CSL co-transfected with … and 1 to 30 ng dnMAML plasmid; percent of maximal (uninhibited) activation, nearly 0% at 30 ng (% of maximal activation) [3]: 30; TP1-luc luciferase reporter in OT11 cells; CAN co-transfected with RAM and 1 to 30 ng dnMAML plasmid; percent of maximal (uninhibited) activation, nearly 0% at 30 ng (% of maximal activation) [4]: 25

**Q.** Which TP1-luc luciferase reporter in OT11 cells; RAM and ANKNLS in trans co-transfected with CSL; fold activation [5] does the source give for “RAM (human Notch1 residues 1758-1878) (from UniProt P46531 1758-1878) (domain or fragment)” here?
**A.** 9 fold

**Q.** And the TP1-luc luciferase reporter in OT11 cells; RAM co-transfected with CAN; fold over CAN alone [6]?
**A.** 6 fold

**Q.** For “… (human Notch1 residues 1758-2174) (from UniProt P46531 1758-2174) (domain or fragment)”, which TP1-luc luciferase reporter in OT11 cells; … co-transfected with CSL; fold over empty vector [5] is on record?
**A.** 24 fold

Source: PMC3410904
